The target in this test is KREPA2 αH1 group mutant of the negatively charged glutamic and aspartic acid residues (to alanine) (T. brucei). In words: pull-down.

Consider “kinetoplastid RNA editing ligase 1 (KREL1) full-length (51-469) (enzyme)”, for which the decrease in binding efficiency against the wild type turned out to be 75%.

For the origin of these results see PMC9891256.
